From patent publication US20070218075

Key:
[1] = biological target: T1, 1Q FnbA mutant (recombinant Gln103Ala FnbA mutant, residues Ala1-Pro839)
T1 chain: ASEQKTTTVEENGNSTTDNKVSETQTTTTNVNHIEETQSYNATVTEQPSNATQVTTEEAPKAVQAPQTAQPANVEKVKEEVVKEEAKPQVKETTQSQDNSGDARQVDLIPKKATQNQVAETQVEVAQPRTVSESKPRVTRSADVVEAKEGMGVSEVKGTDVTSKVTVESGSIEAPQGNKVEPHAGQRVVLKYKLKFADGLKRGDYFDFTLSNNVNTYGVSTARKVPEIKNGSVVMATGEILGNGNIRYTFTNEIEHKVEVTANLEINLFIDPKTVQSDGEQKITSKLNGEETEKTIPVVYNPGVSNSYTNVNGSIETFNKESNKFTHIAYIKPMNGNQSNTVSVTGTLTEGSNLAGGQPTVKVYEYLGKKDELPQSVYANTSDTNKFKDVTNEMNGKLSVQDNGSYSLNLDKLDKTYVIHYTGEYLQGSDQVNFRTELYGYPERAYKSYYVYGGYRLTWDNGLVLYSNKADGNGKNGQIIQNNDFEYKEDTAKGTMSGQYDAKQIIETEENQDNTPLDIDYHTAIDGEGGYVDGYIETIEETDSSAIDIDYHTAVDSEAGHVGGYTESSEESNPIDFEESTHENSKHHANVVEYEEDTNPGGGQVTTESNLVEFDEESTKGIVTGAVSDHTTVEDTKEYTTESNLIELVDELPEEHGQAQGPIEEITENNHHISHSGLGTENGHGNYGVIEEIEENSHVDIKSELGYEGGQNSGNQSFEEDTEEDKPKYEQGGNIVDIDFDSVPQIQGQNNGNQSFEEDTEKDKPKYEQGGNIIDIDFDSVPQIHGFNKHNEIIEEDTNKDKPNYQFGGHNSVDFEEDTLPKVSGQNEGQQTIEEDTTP

[2] = biological target: T2, 4Q4K FnbA mutant (recombinant Gln103Ala, Gln105Ala, Gln783Ala, Gln830Ala, Lys157Ala, Lys503Ala, Lys620Ala, and Lys762Ala mutant, residues Ala1-Pro839)
T2 chain: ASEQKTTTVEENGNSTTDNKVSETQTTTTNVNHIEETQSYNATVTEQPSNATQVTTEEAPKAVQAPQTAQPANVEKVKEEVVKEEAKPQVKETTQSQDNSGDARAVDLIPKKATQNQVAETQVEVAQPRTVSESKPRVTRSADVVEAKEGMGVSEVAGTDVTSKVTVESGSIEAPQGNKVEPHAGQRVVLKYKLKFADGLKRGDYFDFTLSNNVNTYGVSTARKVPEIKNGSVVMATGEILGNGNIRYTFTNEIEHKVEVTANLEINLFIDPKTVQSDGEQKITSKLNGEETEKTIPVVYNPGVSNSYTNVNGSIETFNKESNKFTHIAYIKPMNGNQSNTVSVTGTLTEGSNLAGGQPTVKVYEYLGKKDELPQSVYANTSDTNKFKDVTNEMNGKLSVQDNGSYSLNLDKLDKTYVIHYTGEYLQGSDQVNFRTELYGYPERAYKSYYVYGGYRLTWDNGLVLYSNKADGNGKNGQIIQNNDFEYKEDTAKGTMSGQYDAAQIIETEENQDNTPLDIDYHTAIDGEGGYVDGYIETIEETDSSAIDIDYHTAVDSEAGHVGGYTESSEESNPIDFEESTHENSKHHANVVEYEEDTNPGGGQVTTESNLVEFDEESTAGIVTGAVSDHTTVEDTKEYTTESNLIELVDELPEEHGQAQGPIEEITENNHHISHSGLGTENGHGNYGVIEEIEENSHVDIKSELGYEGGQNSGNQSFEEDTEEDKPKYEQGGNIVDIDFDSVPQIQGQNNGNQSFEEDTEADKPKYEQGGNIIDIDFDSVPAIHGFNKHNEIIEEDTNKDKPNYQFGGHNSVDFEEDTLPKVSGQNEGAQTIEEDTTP

[3] = biological target: T3, recombinant fibronectin-binding protein A (rFnbA) comprising residues Ala1 through Pro839 from S. aureus strain ATCC49525, wild type
T3 chain: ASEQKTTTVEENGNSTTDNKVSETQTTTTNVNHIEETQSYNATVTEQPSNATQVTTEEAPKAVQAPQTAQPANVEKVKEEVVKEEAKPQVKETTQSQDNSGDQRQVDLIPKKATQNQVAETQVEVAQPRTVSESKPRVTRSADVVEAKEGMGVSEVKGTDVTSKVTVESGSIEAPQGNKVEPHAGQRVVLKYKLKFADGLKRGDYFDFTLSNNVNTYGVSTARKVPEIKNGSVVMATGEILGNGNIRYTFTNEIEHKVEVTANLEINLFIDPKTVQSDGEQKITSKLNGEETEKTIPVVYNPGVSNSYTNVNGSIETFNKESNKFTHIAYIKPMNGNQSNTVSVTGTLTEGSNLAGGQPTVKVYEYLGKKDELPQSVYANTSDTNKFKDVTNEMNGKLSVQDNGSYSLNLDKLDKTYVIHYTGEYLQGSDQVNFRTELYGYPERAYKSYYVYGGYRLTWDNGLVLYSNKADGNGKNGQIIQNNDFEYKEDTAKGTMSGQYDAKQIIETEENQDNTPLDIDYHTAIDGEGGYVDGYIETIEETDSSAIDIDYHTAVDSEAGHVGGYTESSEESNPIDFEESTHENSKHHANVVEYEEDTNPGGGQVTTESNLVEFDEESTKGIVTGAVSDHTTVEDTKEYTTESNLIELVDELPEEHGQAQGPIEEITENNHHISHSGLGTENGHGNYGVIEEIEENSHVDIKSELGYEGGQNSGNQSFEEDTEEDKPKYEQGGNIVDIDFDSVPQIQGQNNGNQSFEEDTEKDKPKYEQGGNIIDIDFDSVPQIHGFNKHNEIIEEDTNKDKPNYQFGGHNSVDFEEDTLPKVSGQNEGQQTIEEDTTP

B1: Factor XIIIa (Factor XIII, Haematologic Technologies, activated by thrombin) (protein)
chain 1: GVNLQEFLNVTSVHLFKERWDTNKVDHHTDKYENNKLIVRRGQSFYVQIDFSRPYDPRRDLFRVEYVIGRYPQENKGTYIPVPIVSELQSGKWGAKIVMREDRSVRLSIQSSPKCIVGKFRMYVAVWTPYGVLRTSRNPETDTYILFNPWCEDDAVYLDNEKEREEYVLNDIGVIFYGEVNDIKTRSWSYGQFEDGILDTCLYVMDRAQMDLSGRGNPIKVSRVGSAMVNAKDDEGVLVGSWDNIYAYGVPPSAWTGSVDILLEYRSSENPVRYGQCWVFAGVFNTFLRCLGIPARIVTNYFSAHDNDANLQMDIFLEEDGNVNSKLTKDSVWNYHCWNEAWMTRPDLPVGFGGWQAVDSTPQENSDGMYRCGPASVQAIKHGHVCFQFDAPFVFAEVNSDLIYITAKKDGTHVVENVDATHIGKLIVTKQIGGDGMMDITDTYKFQEGQEEERLALETALMYGAKKPLNTEGVMKSRSNVDMDFEVENAVLGKDFKLSITFRNNSHNRYTITAYLSANITFYTGVPKAEFKKETFDVTLEPLSFKKEAVLIQAGEYMGQLLEQASLHFFVTARINETRDVLAKQKSTVLTIPEIIIKVRGTQVVGSDMTVTVEFTNPLKETLRNVWVHLDGPGVTRPMKKMFREIRPNSTVQWEEVCRPWVSGHRKLIASMSSDSLRHVYGELDVQIQRRPSM
chain 2: EEKPCGFPHVENGRIAQYYYTFKSFYFPMSIDKKLSFFCLAGYTTESGRQEEQTTCTTEGWSPEPRCFKKCTKPDLSNGYISDVKLLYKIQENMRYGCASGYKTTGGKDEEVVQCLSDGWSSQPTCRKEHETCLAPELYNGNYSTTQKTFKVKDKVQYECATGYYTAGGKKTEEVECLTYGWSLTPKCTKLKCSSLRLIENGYFHPVKQTYEEGDVVQFFCHENYYLSGSDLIQCYNFGWYPESPVCEGRRNRCPPPPLPINSKIQTHSTTYRHGEIVHIECELNFEIHGSAEIRCEDGKWTEPPKCIEGQEKVACEEPPFIENGAANLHSKIYYNGDKVTYACKSGYLLHGSNEITCNRGKWTLPPECVENNENCKHPPVVMNGAVADGILASYATGSSVEYRCNEYYLLRGSKISRCEQGKWSSPPVCLEPCTVNVDYMNRNNIEMKWKYEGKVLHGDLIDFVCKQGYDLSPLTPLSELSVQCNRGEVKYPLCTRKESKGMCTSPPLIKHGVIISSTVDTYENGSSVEYRCFDHHFLEGSREAYCLDGMWTTPPLCLEPCTLSFTEMEKNNLLLKWDFDNRPHILHGEYIEFICRGDTYPAELYITGSILRMQCDRGQLKYPRCIPRQSTLSYQEPLRT
Factor XIIIa-catalyzed incorporation of dansylcadaverine (fluorescence of the FnbA band on SDS-PAGE) [1]: incorporation of dansylcadaverine into the 1Q FnbA mutant was drastically reduced | Factor XIIIa-catalyzed incorporation of dansylcadaverine (fluorescence of the FnbA band on SDS-PAGE) [2]: Further reduction in fluorescence intensity was observed with the 4Q4K rFnbA mutant | Factor XIIIa-catalyzed incorporation of dansylcadaverine (fluorescence of the FnbA band on SDS-PAGE) [3]: the band corresponding to the wild-type FnbA undergoes a continual increase of fluorescence reflecting the enzymatic attachment of increasing molecules of the probe
